# Source: PMC4930772, “Crystal structure of a PP2A B56-BubR1 complex and its implications for PP2A substrate recruitment and localization” (Protein & Cell, 2016)
# Biological target: human PP2A B56γ1(30–380) (human, UniProt Q13362-2 30-380)
# Experiment: ITC; B56γ1 in the cell at 0.03 mmol/L, BubR1 protein or peptide at 0.7 mmol/L injected (20 x 1.5 µL); room temperature; 20 mmol/L Tris-HCl pH 8.0, 200 mmol/L NaCl; one-site model
# Settings: both partners purified
Kd,dH,stoichiometry N,Binder
2.27 ± 0.37 µM,-28.4 ± 0.83 kcal/mol,1.02 ± 0.02,"human BubR1(647–720)-3D (S670D/S676D/T680D) (domain or fragment, also called BubR1-3D; source: E. coli BL21 (DE3), purified (Glutathione Sepharose 4B, TEV cleavage, Hitrap Q HP)) KTSEDQQTACGTIYSQTLSIKKLDPIIEDDREADHSSGFSGSSASVASTSSIKCLQIPEKLELTNETSENPTQS"
10.6 ± 1.72 µM,-9.74 ± 0.64 kcal/mol,1.02 ± 0.05,"human BubR1(647–720; E678A/T680A/H681A) (domain or fragment, also called BubR1-AAAA; source: E. coli BL21 (DE3), purified the same way as wild type) KTSEDQQTACGTIYSQTLSIKKLSPIIEDSRAAAASSGFSGSSASVASTSSIKCLQIPEKLELTNETSENPTQS"
